Earlier results in PMC2830912.

Biological target: Pol III alpha subunit (Escherichia coli) (UniProt P10443)
Sequence (P10443 whole entry): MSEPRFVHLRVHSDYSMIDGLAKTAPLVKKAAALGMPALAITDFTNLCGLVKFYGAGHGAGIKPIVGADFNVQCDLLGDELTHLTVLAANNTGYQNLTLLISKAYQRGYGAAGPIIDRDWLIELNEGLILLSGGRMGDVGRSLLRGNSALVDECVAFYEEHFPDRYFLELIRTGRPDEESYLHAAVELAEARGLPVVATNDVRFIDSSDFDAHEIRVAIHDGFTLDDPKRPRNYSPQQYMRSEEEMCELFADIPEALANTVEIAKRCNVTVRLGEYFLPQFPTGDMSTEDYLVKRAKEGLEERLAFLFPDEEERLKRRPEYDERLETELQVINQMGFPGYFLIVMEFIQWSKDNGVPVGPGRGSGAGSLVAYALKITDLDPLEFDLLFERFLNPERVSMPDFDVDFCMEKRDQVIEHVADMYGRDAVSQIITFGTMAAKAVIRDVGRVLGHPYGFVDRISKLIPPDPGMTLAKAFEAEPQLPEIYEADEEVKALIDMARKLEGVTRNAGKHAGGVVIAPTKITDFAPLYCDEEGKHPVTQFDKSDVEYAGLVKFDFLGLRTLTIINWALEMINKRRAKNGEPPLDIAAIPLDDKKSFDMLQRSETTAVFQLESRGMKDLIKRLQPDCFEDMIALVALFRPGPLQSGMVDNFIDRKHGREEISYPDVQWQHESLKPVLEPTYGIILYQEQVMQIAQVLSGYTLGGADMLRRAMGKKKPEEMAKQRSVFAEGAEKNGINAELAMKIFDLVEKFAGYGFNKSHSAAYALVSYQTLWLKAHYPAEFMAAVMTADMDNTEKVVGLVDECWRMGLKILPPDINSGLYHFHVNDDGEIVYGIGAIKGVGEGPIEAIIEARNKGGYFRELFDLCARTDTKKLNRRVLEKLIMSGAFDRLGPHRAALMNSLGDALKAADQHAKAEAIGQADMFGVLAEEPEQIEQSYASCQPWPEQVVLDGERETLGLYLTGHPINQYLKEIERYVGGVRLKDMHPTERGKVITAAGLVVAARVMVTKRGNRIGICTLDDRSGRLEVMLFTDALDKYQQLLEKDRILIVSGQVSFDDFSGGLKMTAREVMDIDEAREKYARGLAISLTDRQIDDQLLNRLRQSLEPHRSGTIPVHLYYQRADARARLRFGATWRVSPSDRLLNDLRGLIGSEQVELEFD

Chain of DnaX tau subunit (P06710 2-643): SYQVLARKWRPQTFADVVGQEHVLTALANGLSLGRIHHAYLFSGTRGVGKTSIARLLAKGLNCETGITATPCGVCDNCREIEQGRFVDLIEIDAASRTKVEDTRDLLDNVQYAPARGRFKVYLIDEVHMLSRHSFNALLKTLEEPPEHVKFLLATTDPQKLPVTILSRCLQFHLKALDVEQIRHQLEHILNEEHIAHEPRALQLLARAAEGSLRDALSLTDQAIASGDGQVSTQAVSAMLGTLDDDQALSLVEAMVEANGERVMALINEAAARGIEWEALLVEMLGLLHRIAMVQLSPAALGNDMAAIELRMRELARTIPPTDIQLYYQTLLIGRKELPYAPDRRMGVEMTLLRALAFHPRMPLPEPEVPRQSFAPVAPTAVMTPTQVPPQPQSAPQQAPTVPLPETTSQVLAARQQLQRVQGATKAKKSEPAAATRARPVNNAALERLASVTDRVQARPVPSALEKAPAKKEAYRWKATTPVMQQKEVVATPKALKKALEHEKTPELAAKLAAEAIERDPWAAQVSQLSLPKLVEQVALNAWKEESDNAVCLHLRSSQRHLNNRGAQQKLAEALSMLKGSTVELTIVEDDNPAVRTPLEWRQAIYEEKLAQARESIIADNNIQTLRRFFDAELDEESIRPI

For DnaX tau subunit (from UniProt P06710), the Kd is given as 0.07 nM.
